Source: PMC4784909, “The Structural Basis of Coenzyme A Recycling in a Bacterial Organelle” (PLoS Biology, 2016)
Where two headings read alike, the source gives them in different places.

Columns and labels:
rPduLΔEP [1] = target: T1, rPduLΔEP (Rhodopseudomonas palustris, UniProt Q21A54); assay: X-ray crystal structure, […] Å; type: binding; set-up: gene pduL; C-terminal 6xHis, codon optimized, E. coli BL21(DE3); dimer; contains 2 Zn; conditions: CoA co-purified from E. coli; sulfur coordinates Zn1 of di-zinc active site
rPduLΔEP [2] = target: T1, rPduLΔEP; set-up: gene pduL; conditions: crystals soaked 2 d in sodium phosphate pH 7.0; bridges both Zn in active site, CoA dissociated
[3] = target: pPduL, full length (PduL from the pvm locus of Planctomyces limnophilus) (Planctomyces limnophilus); assay: SEC; post-nickel affinity protein on HiLoad 26/60 Superdex 200 preparative column, pooled fractions (1-20 mg/mL) on Superdex 200 10/300 GL analytical column; 20 mM Tris pH 7.4, 50 mM NaCl
[4] = target: pPduL, full length (PduL from the pvm locus of Planctomyces limnophilus) (Planctomyces limnophilus); assay: as above; remark: listed apart in the source
[5] = target: the molecule itself; assay: SEC-MALS; Superdex S200 10/300 GL, 1 mg/ml protein injected, 0.5 ml/min, 20 mM Tris, 50 mM NaCl, pH 7.4
[6] = target: the molecule itself; assay: SEC; post-nickel affinity protein on HiLoad 26/60 Superdex 200 preparative column, pooled fractions (1-20 mg/mL) on Superdex 200 10/300 GL analytical column; 20 mM Tris pH 7.4, 50 mM NaCl

Molecule: CC(C)(COP(=O)(O)OP(=O)(O)OC[C@H]1O[C@@H](n2cnc3c(N)ncnc32)[C@H](O)[C@@H]1OP(=O)(O)O)[C@@H](O)C(=O)NCCC(=O)NCCS [Coenzyme A]
- X-ray crystal structure, 1.54 Å (rPduLΔEP [1]): tetrahedral coordination state with His48, His50, Glu109, and the CoA sulfur

Molecule: O=P(O)(O)O [phosphate]
- X-ray crystal structure, phosphate soak, 2.10 Å (rPduLΔEP [2]): the CoA dissociates, and density for a phosphate molecule is visible at the active site

Molecule: pPduL, full length (PduL from the pvm locus of Planctomyces limnophilus) (enzyme)
- stoichiometry N [3]: 6
- stoichiometry N [4]: 2

B1: rPduL, full length (PduL from the grm3 locus of Rhodopseudomonas palustris BisB18) (enzyme, UniProt Q21A54 1-226, looked up)
chain: MDMQQETIERIIRQVLGQVGPAGGSIATLSGDAGVDPFQVAVGVSNRHIHLSRTDMDTLFGPGAELQRKKAMKQPGQFAAEETVTLKGPKGSLSKVRVLGPLRRETQVEVSVADGFALGITPPLRQSGQLDDTPGLTIIGPQGSVTKDHGVIVAQRHIHMHPSTAAKLGLRNGDEVDVEAGGERGGVMHRVLIRVAEASADEMHIDVEEANALCLKNDDVVRICKK
notes: PduL phosphotransacylase, grm3 locus, Rhodopseudomonas palustris BisB18, with its N-terminal encapsulation peptide; Two oligomeric states by SEC (about a dimer and a higher oligomer); six subunits by SEC-MALS; also called rPduL hexamer; wildtype construct; source: E. coli BL21(DE3), purified (HisTrap, Superdex 200)
- stoichiometry N [5]: 6
- stoichiometry N [6]: ~2

B2: rPduLΔEP (PduL from the grm3 locus of Rhodopseudomonas palustris BisB18, N-terminal putative encapsulation peptide removed) (enzyme, UniProt Q21A54 34-226, looked up)
chain: GVDPFQVAVGVSNRHIHLSRTDMDTLFGPGAELQRKKAMKQPGQFAAEETVTLKGPKGSLSKVRVLGPLRRETQVEVSVADGFALGITPPLRQSGQLDDTPGLTIIGPQGSVTKDHGVIVAQRHIHMHPSTAAKLGLRNGDEVDVEAGGERGGVMHRVLIRVAEASADEMHIDVEEANALCLKNDDVVRICKK
notes: PduL phosphotransacylase, grm3 locus, Rhodopseudomonas palustris BisB18; N-terminal putative EP (33 amino acids) removed; the crystallized construct begins with M-G-V; The construct begins with M-G-V; Gene codon optimized and synthesized with the 6xHis tag; no tag cleavage step is described; Crystals hold CoA (or phosphate) and two zinc ions per chain; also called truncated rPduL; Pdul-His; …
- stoichiometry N [6]: 2
